In data set [1] the target is T1, HEN1 wt (Arabidopsis thaliana, UniProt Q9C5Q8 1-942).
T1 sequence: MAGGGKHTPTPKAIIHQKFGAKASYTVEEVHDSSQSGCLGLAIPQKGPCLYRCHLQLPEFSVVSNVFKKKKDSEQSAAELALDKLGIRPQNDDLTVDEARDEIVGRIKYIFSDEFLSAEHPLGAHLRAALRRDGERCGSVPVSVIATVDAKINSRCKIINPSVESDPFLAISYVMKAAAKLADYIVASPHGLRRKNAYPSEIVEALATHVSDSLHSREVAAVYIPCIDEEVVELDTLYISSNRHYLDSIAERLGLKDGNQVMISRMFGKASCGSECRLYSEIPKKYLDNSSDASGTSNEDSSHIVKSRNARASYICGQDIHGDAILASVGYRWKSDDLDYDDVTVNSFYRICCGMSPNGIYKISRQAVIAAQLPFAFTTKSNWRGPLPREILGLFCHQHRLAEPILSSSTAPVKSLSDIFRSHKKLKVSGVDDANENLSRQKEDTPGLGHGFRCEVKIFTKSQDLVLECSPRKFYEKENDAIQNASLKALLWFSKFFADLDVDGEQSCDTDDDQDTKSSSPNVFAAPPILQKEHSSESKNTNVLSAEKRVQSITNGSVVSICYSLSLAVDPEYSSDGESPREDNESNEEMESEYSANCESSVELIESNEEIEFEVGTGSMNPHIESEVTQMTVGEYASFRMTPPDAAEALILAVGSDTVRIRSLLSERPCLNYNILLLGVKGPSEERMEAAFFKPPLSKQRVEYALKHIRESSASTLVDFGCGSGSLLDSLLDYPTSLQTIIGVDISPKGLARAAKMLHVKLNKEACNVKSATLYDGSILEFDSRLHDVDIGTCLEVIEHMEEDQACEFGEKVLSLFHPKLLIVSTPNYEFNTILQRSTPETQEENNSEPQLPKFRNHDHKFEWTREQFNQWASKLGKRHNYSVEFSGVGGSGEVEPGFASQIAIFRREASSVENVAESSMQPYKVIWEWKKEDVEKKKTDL
Briefly: EMSA.

For data set [2], the target named is T2, HEN1 Δ38-45 (Arabidopsis thaliana, UniProt Q9C5Q8 1-37+=G+46-942, internal_change).
T2 sequence: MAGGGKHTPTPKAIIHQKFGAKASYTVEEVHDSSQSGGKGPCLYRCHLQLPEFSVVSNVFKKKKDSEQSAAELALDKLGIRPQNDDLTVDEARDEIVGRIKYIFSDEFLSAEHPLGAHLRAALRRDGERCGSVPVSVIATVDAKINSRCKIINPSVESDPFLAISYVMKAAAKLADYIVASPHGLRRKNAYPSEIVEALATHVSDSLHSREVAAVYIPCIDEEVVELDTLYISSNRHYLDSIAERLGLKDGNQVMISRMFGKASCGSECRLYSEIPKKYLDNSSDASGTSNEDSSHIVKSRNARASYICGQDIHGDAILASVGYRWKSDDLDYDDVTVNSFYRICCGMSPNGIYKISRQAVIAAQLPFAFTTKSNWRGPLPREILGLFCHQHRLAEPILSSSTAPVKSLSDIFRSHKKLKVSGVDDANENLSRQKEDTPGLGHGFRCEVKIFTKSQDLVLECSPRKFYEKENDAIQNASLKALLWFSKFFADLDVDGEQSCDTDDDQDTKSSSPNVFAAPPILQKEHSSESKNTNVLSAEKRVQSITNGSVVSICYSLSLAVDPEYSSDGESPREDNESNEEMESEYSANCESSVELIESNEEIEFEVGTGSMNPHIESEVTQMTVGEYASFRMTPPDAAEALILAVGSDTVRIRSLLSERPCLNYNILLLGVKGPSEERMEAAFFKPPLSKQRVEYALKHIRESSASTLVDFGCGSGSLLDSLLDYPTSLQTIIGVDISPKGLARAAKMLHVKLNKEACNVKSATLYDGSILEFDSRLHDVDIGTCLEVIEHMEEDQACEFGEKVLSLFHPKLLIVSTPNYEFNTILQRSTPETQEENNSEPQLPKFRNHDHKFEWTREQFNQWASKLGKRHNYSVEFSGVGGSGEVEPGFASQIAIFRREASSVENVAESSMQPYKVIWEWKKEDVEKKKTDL
Put plainly: EMSA.

B1: miR173/miR173* (dsRNA)
RNA 1: UUCGCUUGCAGAGAGAAAUCAC
RNA 2: GAUUCUCUGUGUAAGCGAAAG
As to B1, the Kd (commonly the free concentration of one partner at which half of the binding sites on the other are occupied at equilibrium, for simple one-to-one binding) in data set [1] was 0.32 ± 0.03 nM; in data set [2], 0.32 ± 0.04 nM.

The record behind these values is PMC4357707 (Nucleic Acids Research, 2015).
